B1: Tesmin (Homo sapiens), Q9Y4I5 (parent)
chain: MEEGPLPGGLPSPEDAMVTELLSPEGPFASENIGLKAPVKYEEDEFHVFKEAYLGPADPKEPVLHAFNPALGADCKGQVKAKLAGGDSDGGELLGEYPGIPELSALEDVALLQAPQPPACNVHFLSSLLPAHRSPAVLPLGAWVLEGASHPGVRMIPVEIKEAGGTTTSNNPEEATLQNLLAQESCCKFPSSQELEDASCCSLKKDSNPMVICQLKGGTQMLCIDNSRTRELKALHLVPQYQDQNNYLQSDVPKPMTALVGRFLPASTKLNLITQQLEGALPSVVNGSAFPSGSTLPGPPKITLAGYCDCFASGDFCNNCNCNNCCNNLHHDIERFKAIKACLGRNPEAFQPKIGKGQLGNVKPQHNKGCNCRRSGCLKNYCECYEAQIMCSSICKCIGCKNYEESPERKTLMSMPNYMQTGGLEGSHYLPPTKFSGLPRFSHDRRPSSCISWEVVEATCACLLAQGEEAEKEHCSKCLAEQMILEEFGRCLSQILHTEFKSKGLKME
B2: Mineralocorticoid receptor (Homo sapiens), P08235 (parent)
chain: METKGYHSLPEGLDMERRWGQVSQAVERSSLGPTERTDENNYMEIVNVSCVSGAIPNNSTQGSSKEKQELLPCLQQDNNRPGILTSDIKTELESKELSATVAESMGLYMDSVRDADYSYEQQNQQGSMSPAKIYQNVEQLVKFYKGNGHRPSTLSCVNTPLRSFMSDSGSSVNGGVMRAVVKSPIMCHEKSPSVCSPLNMTSSVCSPAGINSVSSTTASFGSFPVHSPITQGTPLTCSPNVENRGSRSHSPAHASNVGSPLSSPLSSMKSSISSPPSHCSVKSPVSSPNNVTLRSSVSSPANINNSRCSVSSPSNTNNRSTLSSPAASTVGSICSPVNNAFSYTASGTSAGSSTLRDVVPSPDTQEKGAQEVPFPKTEEVESAISNGVTGQLNIVQYIKPEPDGAFSSSCLGGNSKINSDSSFSVPIKQESTKHSCSGTSFKGNPTVNPFPFMDGSYFSFMDDKDYYSLSGILGPPVPGFDGNCEGSGFPVGIKQEPDDGSYYPEASIPSSAIVGVNSGGQSFHYRIGAQGTISLSRSARDQSFQHLSSFPPVNTLVESWKSHGDLSSRRSDGYPVLEYIPENVSSSTLRSVSTGSSRPSKICLVCGDEASGCHYGVVTCGSCKVFFKRAVEGQHNYLCAGRNDCIIDKIRRKNCPACRLQKCLQAGMNLGARKSKKLGKLKGIHEEQPQQQQPPPPPPPPQSPEEGTTYIAPAKEPSVNTALVPQLSTISRALTPSPVMVLENIEPEIVYAGYDSSKPDTAENLLSTLNRLAGKQMIQVVKWAKVLPGFKNLPLEDQITLIQYSWMCLSSFALSWRSYKHTNSQFLYFAPDLVFNEEKMHQSAMYELCQGMHQISLQFVRLQLTFEEYTIMKVLLLLSTIPKDGLKSQAAFEEMRTNYIKELRKMVTKCPNNSGQSWQRFYQLTKLLDSMHDLVSDLLEFCFYTFRESHALKVEFPAMLVEIISDQLPKVESGNAKPLYFHRK
partner: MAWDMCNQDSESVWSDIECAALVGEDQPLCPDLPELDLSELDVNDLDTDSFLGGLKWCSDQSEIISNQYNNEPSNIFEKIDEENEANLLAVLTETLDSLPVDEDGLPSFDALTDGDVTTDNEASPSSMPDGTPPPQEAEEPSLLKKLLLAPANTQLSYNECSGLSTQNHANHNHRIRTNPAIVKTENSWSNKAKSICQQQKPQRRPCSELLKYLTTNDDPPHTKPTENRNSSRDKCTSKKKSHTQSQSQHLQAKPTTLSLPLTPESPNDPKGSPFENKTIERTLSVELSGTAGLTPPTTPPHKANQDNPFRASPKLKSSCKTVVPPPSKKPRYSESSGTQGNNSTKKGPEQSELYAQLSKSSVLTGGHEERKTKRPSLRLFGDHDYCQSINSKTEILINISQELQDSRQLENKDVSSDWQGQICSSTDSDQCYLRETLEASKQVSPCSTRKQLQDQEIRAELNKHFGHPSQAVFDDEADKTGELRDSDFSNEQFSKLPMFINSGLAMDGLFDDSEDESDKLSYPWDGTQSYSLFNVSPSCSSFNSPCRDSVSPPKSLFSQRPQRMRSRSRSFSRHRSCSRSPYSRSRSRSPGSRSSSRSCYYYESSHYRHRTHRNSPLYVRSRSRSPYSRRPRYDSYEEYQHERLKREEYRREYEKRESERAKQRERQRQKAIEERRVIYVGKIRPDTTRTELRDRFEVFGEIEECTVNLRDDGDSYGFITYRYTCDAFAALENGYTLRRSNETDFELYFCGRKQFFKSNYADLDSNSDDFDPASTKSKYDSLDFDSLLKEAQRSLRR
B3: Mineralocorticoid receptor (Homo sapiens), P08235 (parent)
chain: B2 chain
partner: B1 chain

Variants of: B1
Conditions: with mcr_human NR3C2, P08235

effect of a mutation on the interaction	Variant
disrupting interaction strength	MEEGPLPGGLPSPEDAMVTELLSPEGPFASENIGLKAPVKYEEDEFHVFKEAYLGPADPKEPVLHAFNPALGADCKGQVKAKLAGGDSDGGELLGEYPGIPELSALEDVALLQAPQPPACNVHFLSSAAPAHRSPAVLPLGAWVLEGASHPGVRMIPVEIKEAGGTTTSNNPEEATLQNAAAQESCCKFPSSQELEDASCCSLKKDSNPMVICQLKGGTQMLCIDNSRTRELKALHLVPQYQDQNNYLQSDVPKPMTALVGRFLPASTKLNLITQQLEGALPSVVNGSAFPSGSTLPGPPKITLAGYCDCFASGDFCNNCNCNNCCNNLHHDIERFKAIKACLGRNPEAFQPKIGKGQLGNVKPQHNKGCNCRRSGCLKNYCECYEAQIMCSSICKCIGCKNYEESPERKTLMSMPNYMQTGGLEGSHYLPPTKFSGLPRFSHDRRPSSCISWEVVEATCACLLAQGEEAEKEHCSKCLAEQMILEEFGRCLSQILHTEFKSKGLKME [L128A;L129A;L180A;L181A]
with no effect	MEEGPLPGGLPSPEDAMVTELLSPEGPFASENIGLKAPVKYEEDEFHVFKEAYLGPADPKEPVLHAFNPALGADCKGQVKAKLAGGDSDGGELLGEYPGIPELSALEDVALLQAPQPPACNVHFLSSLLPAHRSPAVLPLGAWVLEGASHPGVRMIPVEIKEAGGTTTSNNPEEATLQNAAAQESCCKFPSSQELEDASCCSLKKDSNPMVICQLKGGTQMLCIDNSRTRELKALHLVPQYQDQNNYLQSDVPKPMTALVGRFLPASTKLNLITQQLEGALPSVVNGSAFPSGSTLPGPPKITLAGYCDCFASGDFCNNCNCNNCCNNLHHDIERFKAIKACLGRNPEAFQPKIGKGQLGNVKPQHNKGCNCRRSGCLKNYCECYEAQIMCSSICKCIGCKNYEESPERKTLMSMPNYMQTGGLEGSHYLPPTKFSGLPRFSHDRRPSSCISWEVVEATCACLLAQGEEAEKEHCSKCLAEQMILEEFGRCLSQILHTEFKSKGLKME [L180A;L181A]
with no effect	MEEGPLPGGLPSPEDAMVTELLSPEGPFASENIGLKAPVKYEEDEFHVFKEAYLGPADPKEPVLHAFNPALGADCKGQVKAKLAGGDSDGGELLGEYPGIPELSALEDVALLQAPQPPACNVHFLSSAAPAHRSPAVLPLGAWVLEGASHPGVRMIPVEIKEAGGTTTSNNPEEATLQNLLAQESCCKFPSSQELEDASCCSLKKDSNPMVICQLKGGTQMLCIDNSRTRELKALHLVPQYQDQNNYLQSDVPKPMTALVGRFLPASTKLNLITQQLEGALPSVVNGSAFPSGSTLPGPPKITLAGYCDCFASGDFCNNCNCNNCCNNLHHDIERFKAIKACLGRNPEAFQPKIGKGQLGNVKPQHNKGCNCRRSGCLKNYCECYEAQIMCSSICKCIGCKNYEESPERKTLMSMPNYMQTGGLEGSHYLPPTKFSGLPRFSHDRRPSSCISWEVVEATCACLLAQGEEAEKEHCSKCLAEQMILEEFGRCLSQILHTEFKSKGLKME [L128A;L129A]

Variants of: B2
Conditions: with prgc1_human PPARGC1A

effect of a mutation on the interaction	Variant
disrupting interaction strength	E962A

Variants of: B2
Conditions: with prgc1_human PPARGC1A
Remark: another data set of the same source

effect of a mutation on the interaction	Variant
decreasing interaction strength	E962A

Variants of: B3
Conditions: with mtl5_human TESMIN

effect of a mutation on the interaction	Variant
decreasing interaction strength	E962A
